Here are results for nine sequences from the supplement of paper PMC11246515.

± gives the standard deviation of the averaged measurements.

This data set can be described thus: total protein half-life in vivo (active degradation + dilution); higher = more stable protein.
[1] abbreviates: E. coli NCM3722 delta-clpP delta-lon delta-hslV, growth: N-lim chemostat, doubling time 6 h.
Where [2] appears, read: E. coli NCM3722 delta-clpP, growth: N-lim chemostat, doubling time 6 h.
Setting [3] is: E. coli NCM3722 delta-hslV, growth: N-lim chemostat, doubling time 6 h.
[4] abbreviates: E. coli NCM3722 delta-smpB, growth: N-lim chemostat, doubling time 6 h.
Where [5] appears, read: wild type E. coli NCM3722, growth: C-lim chemostat, doubling time 3 h.
Setting [6] is: wild type E. coli NCM3722, growth: C-lim chemostat, doubling time 6 h.
The mark [7] stands for this setting: wild type E. coli NCM3722, growth: C-lim chemostat, doubling time 12 h.
Where [8] appears, read: wild type E. coli NCM3722, growth: N-lim chemostat, doubling time 6 h.
Where [9] appears, read: wild type E. coli NCM3722, growth: N-lim chemostat, doubling time 12 h.
The mark [10] stands for this setting: wild type E. coli NCM3722, growth: P-lim chemostat, doubling time 6 h.
Setting [11] is: wild type E. coli NCM3722, growth: P-lim chemostat, doubling time 12 h.
Where [12] appears, read: E. coli NCM3722 delta-lon, growth: N-lim chemostat, doubling time 6 h.

As for “MDTELLKTFLEVSRTRHFGRAAESLYLTQSAVSFRIRQLENQLGVNLFTRHRNNIRLTAAGEKLLPYAETLMSTWQAARKEVAHTSRHNEFSIGASASLWECMLNQWLGRLYQNQDAHTGLQFEARIAQRQSLVKQLHERQLDLLITTEAPKMDEFSSQLLGYFTLALYTSAPSKLKGDLNYLRLEWGPDFQQHEAGLIGADEVPILTTSSAELAQQQIAMLNGCTWLPVSWARKKGGLHTVVDSTTLSRPLYAIWLQNSDKNALIRDLLKINVLDEVY [P0A8R9]”, the “total protein half-life in vivo” value was 5.38 ± 0.37 h under setting [1]; 4.82 ± 0.081 h under setting [2]; 4.553 ± 0.02 h under setting [3]; 4.1 ± 0.12 h under setting [4]; 3.05 ± 0.072 h under setting [5]; 5.676 ± 0.025 h under setting [6]. Moreover, the “total protein half-life in vivo” value turned out to be 9.53 ± 0.73 h under setting [7]; 4.72 ± 0.46 h under setting [8]; 7.65 ± 0.25 h under setting [9]; 6.13 ± 0.24 h under setting [10]; 11.7 ± 2 h under setting [11].
Consider “MKFPGKRKSKHYFPVNARDPLLQQFQPENETSAAWVVGIDQTLVDIEAKVDDEFIERYGLSAGHSLVIEDDVAEALYQELKQKNLITHQFAGGTIGNTMHNYSVLADDRSVLLGVMCSNIEIGSYAYRYLCNTSSRTDLNYLQGVDGPIGRCFTLIGESGERTFAISPGHMNQLRAESIPEDVIAGASALVLTSYLVRCKPGEPMPEATMKAIEYAKKYNVPVVLTLGTKFVIAENPQWWQQFLKDHVSILAMNEDEAEALTGESDPLLASDKALDWVDLVLCTAGPIGLYMAGFTEDEAKRKTQHPLLPGAIAEFNQYEFSRAMRHKDCQNPLRVYSHIAPYMGGPEKIMNTNGAGDGALAALLHDITANSYHRSNVPNSSKHKFTWLTYSSLAQVCKYANRVSYQVLNQHSPRLTRGLPEREDSLEESYWDR [P0AEW6]”, for which the “total protein half-life in vivo” value is, setting by setting: under setting [1], 4.78 ± 0.21 h; under setting [2], 5.5 ± 1.9 h; under setting [3], 4.38 ± 0.28 h; under setting [12], 6.01 ± 2.3 h; under setting [4], 4.03 ± 0.31 h; under setting [5], 2.86 ± 0.38 h. Further, the “total protein half-life in vivo” value reads like this: under setting [6], 5.87 ± 1.5 h; under setting [7], 8.23 h; under setting [8], 4.14 ± 0.24 h; under setting [9], 8.14 ± 1.9 h; under setting [10], 5.07 ± 0.35 h; under setting [11], 9.56 ± 0.61 h.
Consider “MQIIFGEKCVSLLRLFFAAVLMLWCAQTAAYSGQCHTTQGNPYIGVNFGVKTLEEEANTAGVVKDKFYQWNESNDYYVSCDCDKDNVRSGRWAFAADSPLVYLGDNWYKINDYLAAKVLLQVKGSSPTAVPFENVGTGGDTRWHICDPGGQRLGGQGASGNSGSFSLKILQPFVGSVVIPPMALARLYECYNIPAGDSCTTTGTPVLVYYLSGTINSLGSCSVNAGETIEVDLGDVFAANFRVVGHKPLGARTAELAIPVRCNTGNAGLVNVNLSLTATTDPSYPQAIKTSRPGVGVVVTDSQNNIISPAGGTLPLSIPDDADSIARMNVYPVSTTGVPPETGRFEATATVRINFD”, for which the “total protein half-life in vivo” value under setting [1] stood at 5.52 ± 2.1 h; the “total protein half-life in vivo” value under setting [2] came out at 4.19 h; the “total protein half-life in vivo” value under setting [3] is 5.902 ± 0.037 h; the “total protein half-life in vivo” value under setting [12] is 6.21 ± 1.1 h; the “total protein half-life in vivo” value under setting [4] worked out at 5.24 ± 0.2 h; the “total protein half-life in vivo” value under setting [6] stood at 5.54 ± 0.6 h. Besides, the “total protein half-life in vivo” value is, setting by setting: under setting [7], 9.76 h; under setting [8], 7.57 h; under setting [9], 11.6 ± 0.54 h; under setting [10], 6 h; under setting [11], 12 ± 1.1 h.
Consider “MSYPLFDKDEHWHKPEQAFLTDDHRTILRFAVEALMSGKGAVLVTLVEIRGGAARPLGAQMVVREDGRYCGFVSGGCVEAAAAFEALEMMGSGRDREIRYGEGSPWFDIVLPCGGGITLTLHKLRSAQPLLAVLNRLEQRKPVGLRYDPQAQSLVCLPTQTRTGWNLNGFEVGFRPCVRLMIYGRSLEAQATASLAAATGYDSHIFDLFPASASAQIDTDTAVILLCHDLNRELPVLQAAREAKPFYLGALGSYRTHTLRLQKLHELGWSREETTQIRAPVGIFPKARDAHTLALSVLAEVASVRLHQEEDSCLPPSS”, for which the “total protein half-life in vivo” value under setting [1] was 5.9 ± 0.33 h.
“MTKHARFFLLPSFILISAALIAGCNDKGEEKAHVGEPQVTVHIVKTAPLEVKTELPGRTNAYRIAEVRPQVSGIVLNRNFTEGSDVQAGQSLYQIDPATYQANYDSAKGELAKSEAAAAIAHLTVKRYVPLVGTKYISQQEYDQAIADARQADAAVIAAKATVESARINLAYTKVTAPISGRIGKSTVTEGALVTNGQTTELATVQQLDPIYVDVTQSSNDFMRLKQSVEQGNLHKENATSNVELVMENGQTYPLKGTLQFSDVTVDESTGSITLRAVFPNPQHTLLPGMFVRARIDEGVQPDAILIPQQGVSRTPRGDATVLIVNDKSQVEARPVVASQAIGDKWLISEGLKSGDQVIVSGLQKARPGEQVKATTDTPADTASK”: the “total protein half-life in vivo” value under setting [7] was determined as 13.2 h.
Turning to “MSESVQSNSAVLVHFTLKLDDGTTAESTRNNGKPALFRLGDASLSEGLEQHLLGLKVGDKTTFSLEPDAAFGVPSPDLIQYFSRREFMDAGEPEIGAIMLFTAMDGSEMPGVIREINGDSITVDFNHPLAGQTVHFDIEVLEIDPALEA [P0AEM0]”, the “total protein half-life in vivo” value by setting is: under setting [1], 4.8 h; under setting [2], 4.79 h; under setting [12], 5.05 h; under setting [4], 3.85 ± 0.14 h; under setting [5], 2.84 h; under setting [6], 4.78 ± 0.094 h. The “total protein half-life in vivo” value under setting [7] was determined as 9.21 ± 1.6 h; the “total protein half-life in vivo” value under setting [8] was found to be 4.44 h; the “total protein half-life in vivo” value under setting [9] turned out to be 5.91 h; the “total protein half-life in vivo” value under setting [10] turned out to be 5.49 ± 0.13 h; the “total protein half-life in vivo” value under setting [11] worked out at 11.6 h.
For “MNTNVFRLLLLGSLFSLSACVQQSEVRQMKHSVSTLNQEMTQLNQETVKITQQNRLNAKSSSGVYLLPGAKTPARLESQIGTLRMSLVNITPDADGTTLTLRIQGESNDPLPAFSGTVEYGQIQGTIDNFQEINVQNQLINAPASVLAPSDVDIPLQLKGISVDQLGFVRIHDIQPVMQ”, the “total protein half-life in vivo” value under setting [1] turned out to be 6.62 ± 0.76 h; the “total protein half-life in vivo” value under setting [12] came out at 6.77 ± 0.76 h; the “total protein half-life in vivo” value under setting [4] is 6.22 ± 0.65 h; the “total protein half-life in vivo” value under setting [6] is 5.54 ± 0.6 h; the “total protein half-life in vivo” value under setting [7] came out at 11.3 h; the “total protein half-life in vivo” value under setting [8] is 5.64 ± 1.1 h. Besides, the “total protein half-life in vivo” value was found to be 13.9 h under setting [9], 6.02 ± 0.69 h under setting [10] and 12.7 ± 1.5 h under setting [11].
With “MAFQVKIHQIRAFVEVARQGSIRGASRMLNMSQPALSKSIQELEEGLAAQLFFRRSKGVTLTDAGESFYQHASLILEELRAAQEDIRQRQGQLAGQINIGMGASISRSLMPAVISRFHQQHPQVKVRIMEGQLVSMINELRQGELDFTINTYYQGPYDHEFTFEKLLEKQFAIFCRPGHPAIGARSIKQLLDYSWTMPTPHGSYYKQLSELLDDQAQTPQVGVVCETFSACISLVAKSDFLSKLPEEMGCDPLHGQGLVMLPVSEILPKAAYYLIQRRDSRQTPLTASLITQFRRECGYLQS”, the “total protein half-life in vivo” value was 2.39 ± 0.088 h under setting [12], 0.867 h under setting [8] and 0.857 h under setting [9].
Regarding “MKRMIALDGAQGEGGGQILRSALSLSMITGQPFTITSIRAGRAKPGLLRQHLTAVKAATEICGATVEGAELGSQRLLFRPGTVRGGDYRFAIGSAGSCTLVLQTVLPALWFADGPSRVEVSGGTDNPSAPPADFIRRVLEPLLAKIGIHQQTTLLRHGFYPAGGGVVATEVSPVASFNTLQLGERGNIVQMRGEVLLAGVPRHVAEREIATLAGSFSLHEQNIHNLPRDQGPGNTVSLEVESENITERFFVVGEKRVSAEVVAAQLVKEVKRYLASTAAVGEYLADQLVLPMALAGAGEFTVAHPSCHLLTNIAVVERFLPVRFSLIETDGVTRVSIE”, the “total protein half-life in vivo” value by setting is: under setting [1], 5.12 ± 0.25 h; under setting [2], 4.65 h; under setting [3], 5.05 h; under setting [12], 4.457 ± 0.014 h; under setting [4], 4.17 ± 0.09 h; under setting [5], 2.59 h. Besides, the “total protein half-life in vivo” value by setting is: under setting [6], 5.6 ± 0.12 h; under setting [7], 11.3 ± 1.7 h; under setting [8], 4.52 ± 0.4 h; under setting [10], 5.28 ± 0.24 h; under setting [11], 10.9 h.
